Where “and” joins values, the source holds several entries; their conditions need not be identical. Equal entries are not always repeated.
B3: RecC (natural protein, E. coli)
chain: MLRVYHSNRLDVLEALMEFIVERERLDDPFEPEMILVQSTGMAQWLQMTLSQKFGIAANIDFPLPASFIWDMFVRVLPEIPKESAFNKQSMSWKLMTLLPQLLEREDFTLLRHYLTDDSDKRKLFQLSSKAADLFDQYLVYRPDWLAQWETGHLVEGLGEAQAWQAPLWKALVEYTHQLGQPRWHRANLYQRFIETLESATTCPPGLPSRVFICGISALPPVYLQALQALGKHIEIHLLFTNPCRYYWGDIKDPAYLAKLLTRQRRHSFEDRELPLFRDSENAGQLFNSDGEQDVGNPLLASWGKLGRDYIYLLSDLESSQELDAFVDVTPDNLLHNIQSDILELENRAVAGVNIEEFSRSDNKRPLDPLDSSITFHVCHSPQREVEVLHDRLLAMLEEDPTLTPRDIIVMVADIDSYSPFIQAVFGSAPADRYLPYAISDRRARQSHPVLEAFISLLSLPDSRFVSEDVLALLDVPVLAARFDITEEGLRYLRQWVNESGIRWGIDDDNVRELELPATGQHTWRFGLTRMLLGYAMESAQGEWQSVLPYDESSGLIAELVGHLASLLMQLNIWRRGLAQERPLEEWLPVCRDMLNAFFLPDAETEAAMTLIEQQWQAIIAEGLGAQYGDAVPLSLLRDELAQRLDQERISQRFLAGPVNICTLMPMRSIPFKVVCLLGMNDGVYPRQLAPLGFDLMSQKPKRGDRSRRDDDRYLFLEALISAQQKLYISYIGRSIQDNSERFPSVLVQELIDYIGQSHYLPGDEALNCDESEARVKAHLTCLHTRMPFDPQNYQPGERQSYAREWLPAASQAGKAHSEFVQPLPFTLPETVPLETLQRFWAHPVRAFFQMRLQVNFRTEDSEIPDTEPFILEGLSRYQINQQLLNALVEQDDAERLFRRFRAAGDLPYGAFGEIFWETQCQEMQQLADRVIACRQPGQSMEIDLACNGVQITGWLPQVQPDGLLRWRPSLLSVAQGMQLWLEHLVYCASGGNGESRLFLRKDGEWRFPPLAAEQALHYLSQLIEGYREGMSAPLLVLPESGGAWLKTCYDAQNDAMLDDDSTLQKARTKFLQAYEGNMMVRGEGDDIWYQRLWRQLTPETMEAIVEQSQRFLLPLFRFNQS
notes: RecC, E. coli, wild type; Called wild type; source: purified as part of the RecBCD or RecB^ΔNucCD hetero-trimer

What was measured:
RecBCD (E. coli) = assay: competition fluorescence titration; settings: Buffer M275-10: 20 mM MOPS pH 7.0, 275 mM NaCl, 10 mM MgCl2, 25 °C (M50-10: 50 mM NaCl); cryo-EM buffer 20 mM Tris pH 7.4, 50 mM NaCl, 4 mM MgCl2
[1] = molecular target: T1, RecBΔNucCD RecB:del930-1180 (E. coli) (UniProt P08394+P07648+P04993); assay: competition fluorescence titration; settings: Buffer M275-10: 20 mM MOPS pH 7.0, 275 mM NaCl, 10 mM MgCl2, 25 °C (M50-10: 50 mM NaCl); cryo-EM buffer 20 mM Tris pH 7.4, 50 mM NaCl, 4 mM MgCl2
[2] = molecular target: T1, RecBΔNucCD RecB:del930-1180 (E. coli); assay: ITC; settings: Buffer M275-10: 20 mM MOPS pH 7.0, 275 mM NaCl, 10 mM MgCl2, 25 °C (M50-10: 50 mM NaCl); cryo-EM buffer 20 mM Tris pH 7.4, 50 mM NaCl, 4 mM MgCl2
RecC = molecular target: B3; assay: AUC; sedimentation velocity, c(s) distribution; 200 nM protein, Buffer M50-10 (20 mM MOPS pH 7.0, 50 mM NaCl, 10 mM MgCl2), 25 °C, 42,000 rpm, absorbance at 280 nm; settings: both partners purified
RecB = molecular target: T2, RecB (E. coli, UniProt P08394 1-1180); assay: as above; settings: both partners purified
T2 construct: RecB, E. coli, full length (134 kDa); also called full length RecB; source: purified as part of the RecBCD hetero-trimer
T2 sequence (looked up): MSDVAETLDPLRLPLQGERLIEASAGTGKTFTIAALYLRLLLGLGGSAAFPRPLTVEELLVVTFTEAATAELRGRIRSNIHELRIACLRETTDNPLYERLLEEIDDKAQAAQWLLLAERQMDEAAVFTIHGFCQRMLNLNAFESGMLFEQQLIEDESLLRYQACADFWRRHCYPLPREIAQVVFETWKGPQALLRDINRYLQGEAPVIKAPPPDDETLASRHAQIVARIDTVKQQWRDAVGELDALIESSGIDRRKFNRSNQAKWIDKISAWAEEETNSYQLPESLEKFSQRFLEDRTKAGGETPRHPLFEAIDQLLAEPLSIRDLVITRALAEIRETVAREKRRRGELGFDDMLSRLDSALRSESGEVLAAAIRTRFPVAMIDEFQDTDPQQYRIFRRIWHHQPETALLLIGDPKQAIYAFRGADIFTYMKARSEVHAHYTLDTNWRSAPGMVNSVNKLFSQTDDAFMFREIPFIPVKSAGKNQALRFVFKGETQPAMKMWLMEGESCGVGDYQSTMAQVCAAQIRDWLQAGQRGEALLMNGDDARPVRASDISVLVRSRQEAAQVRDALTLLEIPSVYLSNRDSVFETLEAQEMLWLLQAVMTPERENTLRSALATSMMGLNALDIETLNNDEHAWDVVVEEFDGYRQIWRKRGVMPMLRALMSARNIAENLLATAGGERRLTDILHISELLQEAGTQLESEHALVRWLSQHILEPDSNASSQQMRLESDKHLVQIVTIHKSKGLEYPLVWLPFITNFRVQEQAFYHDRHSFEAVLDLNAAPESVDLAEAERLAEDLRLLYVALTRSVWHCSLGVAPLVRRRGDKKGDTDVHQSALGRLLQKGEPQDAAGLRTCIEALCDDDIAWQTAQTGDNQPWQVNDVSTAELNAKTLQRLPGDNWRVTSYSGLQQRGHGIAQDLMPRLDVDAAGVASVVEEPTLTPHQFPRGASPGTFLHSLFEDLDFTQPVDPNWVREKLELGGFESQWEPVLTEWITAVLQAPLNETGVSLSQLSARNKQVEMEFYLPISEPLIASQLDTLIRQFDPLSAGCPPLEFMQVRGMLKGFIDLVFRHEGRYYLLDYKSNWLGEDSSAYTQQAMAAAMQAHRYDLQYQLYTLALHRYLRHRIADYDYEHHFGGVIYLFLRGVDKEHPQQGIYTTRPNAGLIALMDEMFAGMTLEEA

3'-dT2
Ka (RecBCD (E. coli)): 2.1e+07 M⁻¹
Ka [1]: 9.6e+07 M⁻¹

3'-dT4
Ka (RecBCD (E. coli)): 4.7e+07 M⁻¹
Ka [1]: 3.3e+08 M⁻¹

3'-dT6
Ka (RecBCD (E. coli)): 1.1e+08 M⁻¹
Ka [1]: 9.5e+08 M⁻¹

3'-dT8
Ka [1]: 7.2e+08 M⁻¹

3'-dT10
Ka (RecBCD (E. coli)): 5e+07 M⁻¹
Ka [1]: 5.9e+08 M⁻¹

3'-dT15
Ka (RecBCD (E. coli)): 1e+07 M⁻¹
Ka [1]: 6e+07 M⁻¹

5'-dT6
Ka (RecBCD (E. coli)): 1.1e+08 M⁻¹
Ka [1]: 1.4e+08 M⁻¹

5'-dT8
Ka [1]: 2.3e+08 M⁻¹

5'-dT10
Ka (RecBCD (E. coli)): 2.2e+08 M⁻¹
Ka [1]: 6.4e+08 M⁻¹

5'-dT15
Ka (RecBCD (E. coli)): 2.3e+08 M⁻¹
Ka [1]: 6.5e+08 M⁻¹

blunt ended 60 bp DNA
Ka (RecBCD (E. coli)): 1.4e+07 M⁻¹
Ka [1]: 4.7e+07 M⁻¹

dT4-dT4
Ka [2]: > 1e+09 M⁻¹

dT6-dT6
Ka [2]: > 1e+09 M⁻¹

dT10-dT10
Ka [2]: > 1e+09 M⁻¹

dT15-dT15
Ka [2]: > 1e+09 M⁻¹

dT20-dT20
Ka [2]: > 1e+09 M⁻¹

dT25-dT25
Ka [2]: > 1e+09 M⁻¹

dT30-dT30
Ka [2]: 6.8e+08 M⁻¹ and > 1e+09 M⁻¹

B1: RecB^ΔNuc (RecB with the nuclease domain, residues 930-1180, deleted) (domain or fragment, E. coli, UniProt P08394 1-929, looked up)
chain: MSDVAETLDPLRLPLQGERLIEASAGTGKTFTIAALYLRLLLGLGGSAAFPRPLTVEELLVVTFTEAATAELRGRIRSNIHELRIACLRETTDNPLYERLLEEIDDKAQAAQWLLLAERQMDEAAVFTIHGFCQRMLNLNAFESGMLFEQQLIEDESLLRYQACADFWRRHCYPLPREIAQVVFETWKGPQALLRDINRYLQGEAPVIKAPPPDDETLASRHAQIVARIDTVKQQWRDAVGELDALIESSGIDRRKFNRSNQAKWIDKISAWAEEETNSYQLPESLEKFSQRFLEDRTKAGGETPRHPLFEAIDQLLAEPLSIRDLVITRALAEIRETVAREKRRRGELGFDDMLSRLDSALRSESGEVLAAAIRTRFPVAMIDEFQDTDPQQYRIFRRIWHHQPETALLLIGDPKQAIYAFRGADIFTYMKARSEVHAHYTLDTNWRSAPGMVNSVNKLFSQTDDAFMFREIPFIPVKSAGKNQALRFVFKGETQPAMKMWLMEGESCGVGDYQSTMAQVCAAQIRDWLQAGQRGEALLMNGDDARPVRASDISVLVRSRQEAAQVRDALTLLEIPSVYLSNRDSVFETLEAQEMLWLLQAVMTPERENTLRSALATSMMGLNALDIETLNNDEHAWDVVVEEFDGYRQIWRKRGVMPMLRALMSARNIAENLLATAGGERRLTDILHISELLQEAGTQLESEHALVRWLSQHILEPDSNASSQQMRLESDKHLVQIVTIHKSKGLEYPLVWLPFITNFRVQEQAFYHDRHSFEAVLDLNAAPESVDLAEAERLAEDLRLLYVALTRSVWHCSLGVAPLVRRRGDKKGDTDVHQSALGRLLQKGEPQDAAGLRTCIEALCDDDIAWQTAQTGDNQPWQVNDVSTAELNAKTLQRLPGDNWRVTSYSGLQQRGHGIAQDLMPRLDVDAA
notes: RecB, E. coli; the C-terminal nuclease domain RecB^Nuc (RecB930-1180) is deleted, the deletion starts at amino acid 930 and leaves the whole linker (870-929) intact; runs at 105 kDa; Subunit of the RecB^ΔNucCD hetero-trimer; source: purified to homogeneity as part of the RecB^ΔNucCD hetero-trimer, as described previously for RecBCD
binding result (RecC): binds

B2: RecD (natural protein, E. coli)
chain: MKLQKQLLEAVEHKQLRPLDVQFALTVAGDEHPAVTLAAALLSHDAGEGHVCLPLSRLENNEASHPLLATCVSEIGELQNWEECLLASQAVSRGDEPTPMILCGDRLYLNRMWCNERTVARFFNEVNHAIEVDEALLAQTLDKLFPVSDEINWQKVAAAVALTRRISVISGGPGTGKTTTVAKLLAALIQMADGERCRIRLAAPTGKAAARLTESLGKALRQLPLTDEQKKRIPEDASTLHRLLGAQPGSQRLRHHAGNPLHLDVLVVDEASMIDLPMMSRLIDALPDHARVIFLGDRDQLASVEAGAVLGDICAYANAGFTAERARQLSRLTGTHVPAGTGTEAASLRDSLCLLQKSYRFGSDSGIGQLAAAINRGDKTAVKTVFQQDFTDIEKRLLQSGEDYIAMLEEALAGYGRYLDLLQARAEPDLIIQAFNEYQLLCALREGPFGVAGLNERIEQFMQQKRKIHRHPHSRWYEGRPVMIARNDSALGLFNGDIGIALDRGQGTRVWFAMPDGNIKSVQPSRLPEHETTWAMTVHKSQGSEFDHAALILPSQRTPVVTRELVYTAVTRARRRLSLYADERILSAAIATRTERRSGLAALFSSRE
notes: RecD, E. coli, wild type; Called wild type; Most of RecD has only weak density in the structures solved here; source: purified as part of the RecBCD or RecB^ΔNucCD hetero-trimer
binding result (RecC): binds

B3
binding result (RecB): binds
